Test results as given in patent publication US20260008852A1 (CRYSTAL BIOSCIENCE, published 2026).

Target: T1, his-tagged B7-H3 (UniProt Q5ZPR3-2 29-245, limits assumed)
T1 construct: also called CD276; not shown: His tag
T1 sequence (looked up): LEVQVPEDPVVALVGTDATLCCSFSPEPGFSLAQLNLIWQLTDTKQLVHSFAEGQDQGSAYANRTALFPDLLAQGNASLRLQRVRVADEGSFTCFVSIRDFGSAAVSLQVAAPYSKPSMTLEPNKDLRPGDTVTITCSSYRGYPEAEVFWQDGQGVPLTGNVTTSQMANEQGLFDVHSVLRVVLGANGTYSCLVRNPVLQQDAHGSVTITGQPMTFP
Test: SPR, Carterra LSA; binder captured by anti-human Fc, his-tagged B7-H3 injected
Experimental: Binding affinities of anti-B7-H3 antibodies to B7-H3 were measured by Surface Plasmon Resonance (SPR) on a Carterra LSA instrument. Goat anti-human Fc antibody was amine coupled to a HC30M chip. ScFv-Fc supernatants were diluted 30-fold with HBSTE and were captured by the anti-human Fc coupled HC30M chip. A 1:2 dilution series of his-tagged B7-H3, starting at 400 nM, was injected onto the chip for binding. Data was analyzed using the Carterra TM Kinetics software.

Kd [nM]	kon [M⁻¹ s⁻¹]	koff [s⁻¹]	Binder
0.639	364000		40511p1.2.A8 scFv-Fc (scFv, V domains shown) VH: not shown VL: EIVLTQSPATLSVSPGERATFSCRASQNVRSYLAWYQQKPGQAPRLLIFNTVTRATGIPDRFSGSGSGTDFTLTISSLEPEDFAVYYCQQYYDWPPLTFGGGTKVEIK
2.51	493000		40579p1.E5 scFv-Fc (scFv, V domains shown) VH: EVQLLESGGGLVQPGGSLRLSCAASGFTFSDDWMTWVRQAPGKGLEWVSAINWNGNSTHYADSVKGRFTVSRDNSKNTLYLQMNSLRAEDTAVYYCAKSRTTYYSSMDVWGQGTTVTVSS VL: EIVLTQSPGTLSLSPGERATLSCRASQTVGSYLAWYQQKPGQAPRLLIYGASSRATGIPARFSGSGSGTDFTLTISSLQSEDFAVYYCQHYYDWPPYSFGGGTKVEIK
3.1	622000		40579p1.B8 scFv-Fc (scFv, V domains shown) VH: EVQLLESGGGLVQPGGSLRLSCAASGFTFSDYYMSWVRQAPGKGLEWVSGISMSSTIYYADSVKGRFTISRDNSKNTLYLQMNSLRAEDTAVYYCARHRSPYQYRSMDVWGQGTTVTVSS VL: EIVLTQSPGTLSLSPGERATLSCRASQSVNSKLAWYQQKPGQPPSLLIYDASRRATGIPDRFSGSGSGTEFTLTISSLQSEDFAVYYCQQYNNWPPLTFGGGTKVEIK
15	645000	0.01	40511p1.2.G10 scFv-Fc (scFv, V domains shown, Tested as scFv-Fc supernatant) VH: DVQLVESGGGVVRPGESLRLSCAASGFTFSNYAMNWVRQAPGEGLEWVSRINYKGYNITYYADSVKGRFTISRDNSKNTLYLQMNSLRAEDTAVYYCAKSGSNSNNFFDYWGLGTLVTVSS VL: EIVLTQSPGTLSLSPGERATLSCRASQTVGSKLAWYQQKPGQAPRLLIYGASTRATDIPDRFSGSGSGTEFTLTISSLQSEDFAVYYCQQYINWPPLSFGGGTKVEIK
52	768000	0.04	40511p1.2.A4 scFv-Fc (scFv, V domains shown, Tested as scFv-Fc supernatant) VH: DVQLVESGGGVVRPGESLRLSCAASGFTFSSYAESWVRQAPGEGLEWVSIISGSGGNTFYADSVKGRFTISRDNSKNTLYLQMNSLRAEDTAVYYCARFAYGFFDYWGLGTLVTVSS VL: EIVLTQSPGTLSVSPGERATLSCRASQTVGSKLAWYQQKPGQAPRLLIYDASTRATDIPDRFSGSGSGTDFTLTISSLQSEDFAVYYCQQYRNWPPLTFGGGTKVEIK
61.2	795000	0.05	40511p1.2.B5 scFv-Fc (scFv, V domains shown) VH: DVQLVESGGGVVRPGESLRLSCAASGFTFSSYAMSWVRQAPGEGLEWVSSISGSGGSTLYADSVKGRFTISRDSSNNSLYLQMNSLRAEDTAVYYCAKARNNFFDYWGLGTLVTVSS VL: EIVLTQSPGTLTLSPGERATLSCRASRSILTSLAWYQQRPGQTPRLLIYGANSRATGIPDRFSGSGSGTEFTLTISSLQSEDFAVYYCQQYYDWLTITFGGGTKVEIK
9.11	452000		40579p1.C2 scFv-Fc (scFv, V domains shown, Tested as scFv-Fc supernatant) VH: EVQLLESGGDLVQPGGSLRLSCAASGFNFSSYWMSWVRQAPGKGLEWVSGISISYGGNAYYADSVKGRFTVSRDNSKNTLYLQMNSLRAEDTAVYYCGRDRSPYQYRSMDVWGQGTTVTVSS VL: EIVLTQSPATLSVSPGERATFSCRASQTIGNKLAWYQQKPGQAPRLLIFSASTRATDIPDRFSGSGSGTDFTLTISSLQSEDFAVYYCQQYNNWPPLTFGGGTKVEIK
44.2	25700		40579p1.D8 scFv-Fc (scFv, V domains shown, Tested as scFv-Fc supernatant) VH: EVQLLESGGGLVQPGGSLRLSCAASGFTFSDYYMSWVRQAPGKGLEWVSSISISYGGTTYYADSVKGRFTISRDNSKNTLYLQMNSLRAEDTAVYYCARDRSPYQCRSMDVWGQGTTVTVSS VL: EIVLTQSPGTLSLSPGERATLSCRASQSIRSDLAWYQQKPGQAPRLLIYNTVTRATGVPDRFSGSGSGTEFTLTISSLQSEDFAVYYCQQYNSWPPLTFGGGTKVEIK

The next lines start with the binder.

Binder	Kd [nM]	kon [M⁻¹ s⁻¹]	koff [s⁻¹]
40511p1.1.C3 scFv-Fc (scFv, V domains shown) VH: DVQLVESGGGVVRPGGSLRLSCAASGFTFRIYGMTWVRQAPGEGLEWVSTISGSGNSTYYADSVKGRFTISRDNSKNTLYLQMNSLRAEDTAVYYCAKTWNNYRFFDYWGLGTLVTVSS VL: EIVLTQSPGTLSLSPGERATLSCRASQPINSSYLAWYQQKPGQAPRLLIYAASSRATDIPDRFSGSGSGTDFTLTISSLQSEDFAVYYCQQYYDWPQFTFGGGTKVEIK	47.7	406000	0.02
40511p1.1.D3 scFv-Fc (scFv, V domains shown) VH: DVQLVESGGGVVRPGGSLRLSCAASGFTFRSYGMNWVRQAPGEGLEWVSRMSSGGGAYYADSVKGRFTISRDNSKNTLYLQMNSLRAEDTAVYYCARNSRDFFFDQWGLGTLVTVSS VL: ETVLTQSPGTLSLSPGERATLSCRASQSVNSKLAWYQQKPGQAPRLLIYGASSRATGIPARFSGSGSGTEFTLTISSLQTEDFAVYYCQQYSDWPPLTFGGGTKVEIK	321	109000	0.04
40511p1.1.C4 scFv-Fc (scFv, V domains shown) VH: DVQLVESGGGVVRPGESLRLSCAASGFTFSSYAMSWVRQAPGEGLEWVSRISGSGNSTDYAESVKGRFTISRDSSKNTLYLQMNSLRAEDTAVYYCAKHSTVSFFDYWGLGTLVTVSS VL: EIVLTQSPGTLSLSPGERATLSCRASQSISSRYLAWYQQKPGQAPRLLIYGASRRATGIPARFSGSGSGTEFTLTISSLQSEDFAVYYCQQYGHWPPLTFGGGTKVEIK	17.1	76900	
40511p1.1.A1 scFv-Fc (scFv, V domains shown, Tested as scFv-Fc supernatant) VH: DVQLVESGGGVVRPGESLRLSCAASGFTFSNYAMNWVRQAPGEGLEWVSRINYKGYNITYYADSVKGRFTISRDNSKNTLYLQMNSLRAEDTAVYYCAKSGSNSNNFFDYWGLGTLVTVSS VL: EIVLTQSPGTLSVSPGERATLSCRASQSVNSKLAWYQQRPGQAPRLLIYDASSRATGIPDRFSGSGSGTDFTLTISRLEPEDFAVYYCQQYKNWPPLTFGGGTKVEIK	463	93000	0.04
40511p1.1.H5 scFv-Fc (scFv, V domains shown, Tested as scFv-Fc supernatant) VH: DVQLVESGGGVVRPGESLRLSCAASGFTFSNYAMNWVRQAPGEGLEWVSRINYKGYNITYYADSVKGRFTISRDNSKNTLYLQMNSLRAEDTAVYYCAKSGSNSNNFFDYWGLGTLVTVSS VL: EIVLTQSPGTLSLSPGERATLSCRASQSIRSDLAWYQQKPGQAPRLLIYGAASRATGIPARFSGSGSGTEFTLTISSLQSGDFAVYYCQQYNSWPPLTFGGGTKVEIK	123	10300	
40511p1.1.H10 scFv-Fc (scFv, V domains shown) VH: DVQLVESGGGVVRPGESLRLSCAASGFTFSNYAMNWVRQAPGEGLEWVSRINYKGYNITYYADSVKGRFTISRDNSKNTLYLQMNSLRAEDTAVYYCAKSGSNSNNFFDYWGLGTLVTVSS VL: EIVLTQSPGNLSLSPGERATLSCRASQSVGSQLGWYQQKPGQAPRLLIYGASTRATGIPDRFSGSGSGTEFALTISSLQSEDFAVYYCQQYYDWPPLTFGGGTKVEIK	1.41	752000	
40511p1.2.A12 scFv-Fc (scFv, V domains shown, Tested as scFv-Fc supernatant; also called 40511p1.2.Al2) VH: DVQLVESGGGVVRPGESLRLSCAASGFTFSSYAESWVRQAPGEGLEWVSIISGSGGNTFYADSVKGRFTISRDNSKNTLYLQMNSLRAEDTAVYYCARFAYGFFDYWGLGTLVTVSS VL: EIVLTQSPGTLSVSPGERATLSCRASQTVGSKLAWYQQKPGQPPSLLIYDASTRATGIPDRFSGSGSGTDFTLTISSLQSEDFAVYYCQQYRNWPPLTFGGGTKVEIK	25.1	1.32e+06	0.03
40511p1.1.G1 scFv-Fc (scFv, V domains shown, Tested as scFv-Fc supernatant) VH: DVQLVESGGGVVRPGESLRLSCAASGFTFSSYAESWVRQAPGEGLEWVSIISGSGGNTFYADSVKGRFTISRDNSKNTLYLQMNSLRAEDTAVYYCARFAYGFFDYWGLGTLVTVSS VL: EIVLTQSPGTLSVSPGEGATLSCRASQTVGSKLAWYQQKPGQPPSLLIYDASTRATGIPDRFSGSGSGTDFTLTISSLQSEDFAVYYCQQYRNWPPLTFGGGTKVEIK	54.4	458000	0.02
40511p1.1.D8 scFv-Fc (scFv, V domains shown) VH: DVQLVESGGGVVRPGESLRLSCAASGFTFSSYAMSWVRQAPGEGLEWVSSISGSGGSTLYADSVKGRFTISRDSSNNSLYLQMNSLRAEDTAVYYCAKARNNFFDYWGLGTLVTVSS VL: EIVLTQSPGTLTLSPGERATLSCRASRSILTSLAWYQQRPGQAPRLLIYGANSRATGIPDRFSGSGSGTEFTLTISSLQSEDFAVYYCQQYYDWLTITFGGGTKVEIK	71.8	340000	0.02
40511p1.1.D6 scFv-Fc (scFv, V domains shown, Tested as scFv-Fc supernatant) VH: DVQLVESGGGVVRPGESLTLSCAASGFTINSYAVSWVRQAPGEGLEWVSGISGSGVRYYADSVKGRFTISRDNSNNTLYLQMNSLRAEDTAVYYCARSNKVTWNNFFDYWGLGTLVTVSS VL: EVVLTQSPGTLTLSPGERATLSCRASRSILTSLAWYQQKPGQAPRLLIYNTVTRATGIPARFSGSGSGTEFTLTINSLQSEDFAVYYCQQYYDWPPLTFGGGTKVEIK	0.325	669000	
40511p1.1.G3 scFv-Fc (scFv, V domains shown, Tested as scFv-Fc supernatant) VH: DVQLVESGGGVVRPGESLTLSCAASGFTINSYAVSWVRQAPGEGLEWVSGISGSGVRYYADSVKGRFTISRDDSNNTLYLQMNSLRAEDTAVYYCARSNKVTWNNFFDYWGLGTLVTVSS VL: EVVLTQSPGTLTLSPGERATLSCRASRSILTSLAWYQQKPGQAPRLLIYNTVTRATGIPARFSGSGSGTEFTLTINSLQSEDFAVYYCQQYYDWPPLTFGGGTKVEIK	0.759	494000	
